Experimental data reported in patent publication US20220323583A1, “Pharmaceutical Formulations of Bi-Specific Diabodies and Use of the Same” (MacroGenics, Inc., priority 2019, published 2022).

Assays:
Format in all cases: physicochemical
[1] = Sub-visible particle count, light obscuration (HIAC); details: Study 1, dual-pump infusion
[2] = FLR SE-HPLC protein recovery (monomer peak area)
Protocol: Four levels of PS80 were tested during this study to evaluate the blocking activity of the surfactant. Briefly, test stabilizer solutions (10 mM sodium phosphate at pH 6.0, 150 mM sodium chloride, 1.6 mg/mL BA and 0, 0.05, 0.1, or 0.2 mg/mL PS80) were added to a normal saline containing IV bag. After thorough mixing, the DART-A DP formulation was added to the same IV bag. The bag containing the dosing solution was incubated at 25±2° C. and samples were collected at 0, 24 and 48 hours (the longest proposed administration time). Each sample was analyzed using FLR/SE-HPLC and verified using ELISA to quantify DART-A protein recovery.
For both low and high concentration infusions, samples were collected at 24, 48, and 72 hours from sampling point #5. […] The data was calculated against the expected TO sample to obtain the DART-A recovery. […] Similar to other binding ELISA assays, these ranges are within the typical variation of this type of bioassay (50%-150%).
FLR SE-HPLC analysis was performed to measure protein purity, monomer purity and protein stability. The FLR SE-HPLC configuration included a fluorescence (FLR) detector (λX=280 nm, λE=340 nm), a mobile phase composition of 350 mM Mobile Phase (175 mMNaH2PO4, 175 mMNa2SO, pH 6.3) and a TosoBio TSK G3000SWXL size exclusion column. Samples were diluted to 0.1 mg/mL and stored at 5±3° C. for 24 to 96 hours prior to analysis. Eight μg of protein (or 100 μL is sample concentration was below 0.1 mg/mL) was injected for each 30-minute run. HMW and LMW species and monomer peaks were monitored.

Osmolality = details: Stabilizer 2
[3] = High (5000 ng/mL), T = 48 hours
[4] = High (5000 ng/mL), T = 72 hours

B1: DART-A: sequence-optimized CD123×CD3 bispecific diabody; chains SEQ ID NO:42 and SEQ ID NO:44 covalently bonded by a disulfide bond (protein)
chain 1: QAVVTQEPSLTVSPGGTVTLTCRSSTGAVTTSNYANWVQQKPGQAPRGLIGGTNKRAPWTPARFSGSLLGGKAALTITGAQAEDEADYYCALWYSNLWVFGGGTKLTVLGGGGSGGGGEVQLVQSGAELKKPGASVKVSCKASGYTFTDYYMKWVRQAPGQGLEWIGDIIPSNGATFYNQKFKGRVTITVDKSTSTAYMELSSLRSEDTAVYYCARSHLLRASWFAYWGQGTLVTVSSGGCGGGEVAALEKEVAALEKEVAALEKEVAALEK
chain 2: DFVMTQSPDSLAVSLGERVTMSCKSSQSLLNSGNQKNYLTWYQQKPGQPPKLLIYWASTRESGVPDRFSGSGSGTDFTLTISSLQAEDVAVYYCQNDYSYPYTFGQGTKLEIKGGGSGGGGEVQLVESGGGLVQPGGSLRLSCAASGFTFSTYAMNWVRQAPGKGLEWVGRIRSKYNNYATYYADSVKDRFTISRDDSKNSLYLQMNSLKTEDTAVYYCVRHGNFGNSYVSWFAYWGQGTLVTVSSGGCGGGKVAALKEKVAALKEKVAALKEKVAALKE
modifications: interchain disulfide bond; First Polypeptide Chain of DART-A; Second Polypeptide Chain of DART-A
- Particle Counts/mL ≥25 μm ([1]; High (5000 ng/mL), T = 24 hours): 1 Counts/mL
- Particle Counts/mL ≥10 μm [1, 3]: 0 Counts/mL
- Particle Counts/mL ≥25 μm [1, 3]: 0 Counts/mL
- Particle Counts/mL ≥10 μm [1, 4]: 0 Counts/mL
- Particle Counts/mL ≥25 μm [1, 4]: 0 Counts/mL
- Particle Counts/mL ≥10 μm ([1]; Low (100 ng/mL), T = 0): 5 Counts/mL
- Particle Counts/mL ≥25 μm ([1]; Low (100 ng/mL), T = 0): 0 Counts/mL
- Particle Counts/mL ≥10 μm ([1]; Low (100 ng/mL), T = 24 hours): 4 Counts/mL
- Particle Counts/mL ≥25 μm ([1]; Low (100 ng/mL), T = 24 hours): 1 Counts/mL
- Particle Counts/mL ≥10 μm ([1]; Low (100 ng/mL), T = 48 hours): 7 Counts/mL
- Particle Counts/mL ≥25 μm ([1]; Low (100 ng/mL), T = 48 hours): 0 Counts/mL
- Particle Counts/mL ≥10 μm ([1]; Low (100 ng/mL), T = 72 hours): 1 Counts/mL
- Particle Counts/mL ≥25 μm ([1]; Low (100 ng/mL), T = 72 hours): 0 Counts/mL
- DART-A Monomer Peak Area in SE-HPLC FLR ([2]; Study 1, Stabilizer 1, dual-pump infusion RT, High (5000 ng/mL), Expected or Control (T0)): 1814623 EU * min
- DART-A Monomer Peak Area in SE-HPLC FLR ([2]; Study 1, Stabilizer 1, dual-pump infusion RT, High (5000 ng/mL), T = 24 hours): 1483536 EU * min
- DART-A Monomer Peak Area in SE-HPLC FLR ([2]; Study 1, Stabilizer 1, dual-pump infusion RT, High (5000 ng/mL), T = 48 hours): 1792023 EU * min
- DART-A Monomer Peak Area in SE-HPLC FLR ([2]; Study 1, Stabilizer 1, dual-pump infusion RT, High (5000 ng/mL), T = 72 hours): 1804667 EU * min
- DART-A Monomer Peak Area in SE-HPLC FLR ([2]; Study 1, Stabilizer 1, dual-pump infusion RT, Low (100 ng/mL), Expected or Control (T0)): 46006 EU * min
- DART-A Monomer Peak Area in SE-HPLC FLR ([2]; Study 1, Stabilizer 1, dual-pump infusion RT, Low (100 ng/mL), T = 24 hours): 37026 EU * min
- DART-A Monomer Peak Area in SE-HPLC FLR ([2]; Study 1, Stabilizer 1, dual-pump infusion RT, Low (100 ng/mL), T = 48 hours): 44708 EU * min
- DART-A Monomer Peak Area in SE-HPLC FLR ([2]; Study 1, Stabilizer 1, dual-pump infusion RT, Low (100 ng/mL), T = 72 hours): 49122 EU * min
- DART-A Monomer Peak Area in SE-HPLC FLR ([2]; Study 2, Stabilizer 1, cassette 25° C., 100 rpm, High (5000 ng/mL), T = 0): 41031471 EU * min
- DART-A Monomer Peak Area in SE-HPLC FLR ([2]; Study 2, Stabilizer 1, cassette 25° C., 100 rpm, High (5000 ng/mL), T = 24 hours): 40529514 EU * min
- DART-A Monomer Peak Area in SE-HPLC FLR ([2]; Study 2, Stabilizer 1, cassette 25° C., 100 rpm, High (5000 ng/mL), T = 48 hours): 41438367 EU * min
- DART-A Monomer Peak Area in SE-HPLC FLR ([2]; Study 2, Stabilizer 1, cassette 25° C., 100 rpm, High (5000 ng/mL), T = 72 hours): 41582544 EU * min
- DART-A Monomer Peak Area in SE-HPLC FLR ([2]; Study 2, Stabilizer 1, cassette 25° C., 100 rpm, Low (100 ng/mL), T = 0): 355660 EU * min
- DART-A Monomer Peak Area in SE-HPLC FLR ([2]; Study 2, Stabilizer 1, cassette 25° C., 100 rpm, Low (100 ng/mL), T = 24 hours): 379757 EU * min
- DART-A Monomer Peak Area in SE-HPLC FLR ([2]; Study 2, Stabilizer 1, cassette 25° C., 100 rpm, Low (100 ng/mL), T = 48 hours): 377121 EU * min
- DART-A Monomer Peak Area in SE-HPLC FLR ([2]; Study 2, Stabilizer 1, cassette 25° C., 100 rpm, Low (100 ng/mL), T = 72 hours): 394028 EU * min
- DART-A Monomer Peak Area in SE-HPLC FLR ([2]; Study 3, Stabilizer 1, cassette 37° C., 100 rpm, Low (100 ng/mL), T = 0): 397095 EU * min
- DART-A Monomer Peak Area in SE-HPLC FLR ([2]; Study 3, Stabilizer 1, cassette 37° C., 100 rpm, Low (100 ng/mL), T = 72 hours): 368950 EU * min
- DART-A Monomer Peak Area in SE-HPLC FLR ([2]; Study 3, Stabilizer 1, cassette 37° C., 100 rpm, second group, target concentration not given, T = 0): 41031489 EU * min
- DART-A Monomer Peak Area in SE-HPLC FLR ([2]; Study 3, Stabilizer 1, cassette 37° C., 100 rpm, second group, target concentration not given, T = 72 hours): 39005201 EU * min
- Osmolality (Osmolality; 10 ng/mL dosing solution, Post Infusion (Infusion Time = 48 Hrs)): 274 mOsm/kg
- Osmolality (Osmolality; 10 ng/mL dosing solution, Post Storage (T = 72 Hrs), room temperature): 275 mOsm/kg
- Osmolality (Osmolality; 10 ng/mL dosing solution, T = 0): 275 mOsm/kg
- Osmolality (Osmolality; 20 ng/mL dosing solution, Post Infusion (Infusion Time = 96 Hrs)): 276 mOsm/kg
- Osmolality (Osmolality; 20 ng/mL dosing solution, Post Storage (T =72 Hrs), room temperature): 276 mOsm/kg
- Osmolality (Osmolality; 20 ng/mL dosing solution, T = 0): 276 mOsm/kg
- Osmolality (Osmolality; 1250 ng/mL dosing solution, Post Infusion (Infusion Time = 48 Hrs)): 276 mOsm/kg
- Osmolality (Osmolality; 1250 ng/mL dosing solution, Post Storage (T = 72 Hrs), room temperature): 275 mOsm/kg
- Osmolality (Osmolality; 1250 ng/mL dosing solution, T = 0): 275 mOsm/kg
